Assays:
[1] = target: T1, recombinant TcpC (Toll/interleukin-1 receptor domain-containing protein encoded by E. coli) (uropathogenic E. coli (UPEC), UniProt A0A0H2V8B5 1-307); assay: ITC; 1 uM rTcpC in PBS in the titration pool, 0.1 uM UBE2D1 or rMyD88 in PBS in the sample pool; VP-ITC microcalorimeter; settings: both partners purified
T1 construct: TcpC, TIR domain-containing virulence factor of uropathogenic E. coli; called 'the full length rTcpC protein'; predicted TIR domain 171-304 aa; Only the vector pET42a is named; Depending on the cloning sites it may also add an N-terminal GST and S-tag; CFT073 is surmised; also called rTcpC; rTcpC prototype; source: E. coli BL21DE3 transformed with pET42a-tcpc, purified, LPS-free

[2] = target: T1, recombinant TcpC (Toll/interleukin-1 …); assay: SPR; 1 nM UBE2D1 cross-linked on an activated CM5 chip; 0.05-0.8 nM rTcpC in PBS flowed over; Biacore T200; settings: both partners purified

B1: UBE2D1 (R&D) (enzyme)
chain: not shown
notes: UBE2D1 bought from R&D; No catalogue number is printed, so the species and construct of the bought protein are unknown; source: bought: R&D
How did the Kd [1] turn out when B1 was run?
Its Kd is 763 nM.

And the Kd [2]?
Its Kd is 17.2 nM.
